From patent publication US20240059799A1 (Pfizer, published 2024)
Positions count from the first letter of the chain named.

T1: recombinant human TL1A (human, UniProt O95150 71-251)
T1 construct: The ELISA method says only 'recombinant TL1A' coated on plates; homotrimeric cytokine; also called TNFSF15; recombinant TL1A
T1 chain: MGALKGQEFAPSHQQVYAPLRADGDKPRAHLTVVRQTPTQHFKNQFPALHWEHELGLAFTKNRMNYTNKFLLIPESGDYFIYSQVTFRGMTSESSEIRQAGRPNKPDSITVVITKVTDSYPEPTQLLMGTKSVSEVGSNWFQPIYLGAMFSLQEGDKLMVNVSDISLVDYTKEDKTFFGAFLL

B1: TL1A-0276 (antibody, human IgG1, kappa, V domains shown)
VH: QVQLVQSGAEVKKPGASVKVSCKASGYDFSYYGISWVRQAPGQGLEWMGWISTYNTGTHYAQKLQGRVTMTTDTSTSTAYMELRSLRSDDTAVYYCARESYYGSGAFRGGMDVWGQGTTVTVSS
VL: DIQMTQSPSSLSASVGDRVTITCRASQSVSSYLAWYQQKPGKAPKLLIYDASNRATGVPSRFSGSGSGTDFTLTISSLQPEDFATYYCQQRSNWPWTFGQGTKVEIKR
notes: human IgG1 effector-function-minimized / human kappa
B2: TL1A-0291 (antibody, human IgG1, kappa, V domains shown)
VH: B1 VH with S30T, I34V, F107H
VL: B1 VL
notes: as for B1
B3: TL1A-0303 (antibody, human IgG1, kappa, V domains shown)
VH: B1 VH with S30T, S35G, Q62P, K63S, F107H
VL: B1 VL
notes: as for B1
B4: TL1A-0287 (antibody, human IgG1, kappa, V domains shown)
VH: B1 VH with S30T, I34V, T56D, G57N, F107H
VL: B1 VL
notes: as for B1
B5: TL1A-0311 (antibody, V domains shown)
VH: B1 VH with S30T, S35G, N55G, T56G, G57N, Q62P, K63S, F107H
VL: B1 VL
notes: IgG1 effector-minimized/kappa
B6: TL1A-0281 (antibody, human IgG1, kappa, V domains shown)
VH: B1 VH with G57N, Q62P, K63S, F107H
VL: B1 VL
notes: as for B1
B7: TL1A-0304 (antibody, human IgG1, kappa, V domains shown)
VH: B1 VH with S30T, S35G
VL: B1 VL
notes: as for B1
B8: TL1A-0294 (antibody, human IgG1, kappa, V domains shown)
VH: B1 VH with S30T, I34V, G57N, Q62P, K63S
VL: B1 VL
notes: as for B1
B9: TL1A-0302 (antibody, V domains shown)
VH: B1 VH with S30T, S35G, Q62P, K63S
VL: B1 VL
notes: IgG1 effector-minimized/kappa
B10: TL1A-0288 (antibody, human IgG1, kappa, V domains shown)
VH: B1 VH with S30T, I34V, Q62P, K63S
VL: B1 VL
notes: as for B1
B11: TL1A-0290 (antibody, V domains shown)
VH: B1 VH with S30T, I34V
VL: B1 VL
notes: IgG1 effector-minimized/kappa
B12: TL1A-0324 (antibody, human IgG1, kappa, V domains shown)
VH: B1 VH with S30T, G57N, Q62R, K63M, F107Y
VL: B1 VL
notes: as for B1
B13: TL1A-0297 (antibody, V domains shown)
VH: B1 VH with S30T, I34V, N55G, T56G, G57N, Q62P, K63S, F107H
VL: B1 VL
notes: IgG1 effector-minimized/kappa
B14: TL1A-0309 (antibody, human IgG1, kappa, V domains shown)
VH: B1 VH with S30T, S35G, G57N, Q62P, K63S, F107H
VL: B1 VL
notes: as for B1
B15: TL1A-0285 (antibody, human IgG1, kappa, V domains shown)
VH: B1 VH with S30T, I34V, T56D, G57N, Q62P, K63S, F107H
VL: B1 VL
notes: as for B1
B16: TL1A-0299 (antibody, V domains shown)
VH: B1 VH with S30T, S35G, T56D, G57N, Q62P, K63S, F107H
VL: B1 VL
notes: IgG1 effector-minimized/kappa
B17: TL1A-0307 (antibody, human IgG1, kappa, V domains shown)
VH: B1 VH with S30T, S35G, G57V, Q62P, K63S, F107H
VL: B1 VL
notes: as for B1
B18: TL1A-0280 (antibody, human IgG1, kappa, V domains shown)
VH: B1 VH with G57N, Q62P, K63S
VL: B1 VL
notes: as for B1
B19: TL1A-0286 (antibody, human IgG1, kappa, V domains shown)
VH: B1 VH with S30T, I34V, T56D, G57N
VL: B1 VL
notes: as for B1
B20: TL1A-0306 (antibody, human IgG1, kappa, V domains shown)
VH: B1 VH with S30T, S35G, G57V, Q62P, K63S
VL: B1 VL
notes: as for B1
B21: TL1A-0305 (antibody, human IgG1, kappa, V domains shown)
VH: B1 VH with S30T, S35G, F107H
VL: B1 VL
notes: as for B1
B22: TL1A-0282 (antibody, V domains shown)
VH: B1 VH with N55G, T56G, G57N, Q62P, K63S
VL: B1 VL
notes: IgG1 effector-minimized/kappa
B23: TL1A-0278 (antibody, human IgG1, kappa, V domains shown)
VH: B1 VH with G57V, Q62P, K63S
VL: B1 VL
notes: as for B1
B24: TL1A-0310 (antibody, V domains shown)
VH: B1 VH with S30T, S35G, N55G, T56G, G57N, Q62P, K63S
VL: B1 VL
notes: IgG1 effector-minimized/kappa
B25: TL1A-0284 (antibody, human IgG1, kappa, V domains shown)
VH: B1 VH with S30T, I34V, T56D, G57N, Q62P, K63S
VL: B1 VL
notes: as for B1
B26: TL1A-0301 (antibody, V domains shown)
VH: B1 VH with S30T, S35G, T56D, G57N, F107H
VL: B1 VL
notes: IgG1 effector-minimized/kappa
B27: TL1A-0298 (antibody, V domains shown)
VH: B1 VH with S30T, S35G, T56D, G57N, Q62P, K63S
VL: B1 VL
notes: IgG1 effector-minimized/kappa
B28: TL1A-0296 (antibody, V domains shown)
VH: B1 VH with S30T, I34V, N55G, T56G, G57N, Q62P, K63S
VL: B1 VL
notes: IgG1 effector-minimized/kappa
B29: TL1A-0279 (antibody, human IgG1, kappa, V domains shown)
VH: B1 VH with G57V, Q62P, K63S, F107H
VL: B1 VL
notes: as for B1
B30: TL1A-0277 (antibody, human IgG1, kappa, V domains shown)
VH: B1 VH with F107H
VL: B1 VL
notes: as for B1
B31: TL1A-0283 (antibody, V domains shown)
VH: B1 VH with N55G, T56G, G57N, Q62P, K63S, F107H
VL: B1 VL
notes: IgG1 effector-minimized/kappa
B32: TL1A-0293 (antibody, human IgG1, kappa, V domains shown)
VH: B1 VH with S30T, I34V, G57V, Q62P, K63S, F107H
VL: B1 VL
notes: as for B1
B33: TL1A-0300 (antibody, V domains shown)
VH: B1 VH with S30T, S35G, T56D, G57N
VL: B1 VL
notes: IgG1 effector-minimized/kappa
B34: TL1A-0295 (antibody, human IgG1, kappa, V domains shown)
VH: B1 VH with S30T, I34V, G57N, Q62P, K63S, F107H
VL: B1 VL
notes: as for B1
B35: TL1A-0289 (antibody, human IgG1, kappa, V domains shown)
VH: B1 VH with S30T, I34V, Q62P, K63S, F107H
VL: B1 VL
notes: as for B1
B36: TL1A-0308 (antibody, human IgG1, kappa, V domains shown)
VH: B1 VH with S30T, S35G, G57N, Q62P, K63S
VL: B1 VL
notes: as for B1
B37: TL1A-0292 (antibody, human IgG1, kappa, V domains shown)
VH: B1 VH with S30T, I34V, G57V, Q62P, K63S
VL: B1 VL
notes: as for B1

Target: T1, recombinant human TL1A
Test: competition ELISA on coated recombinant TL1A; competitor biotinylated TL1A-0002
Protocol: For this competition ELISA assay procedure, 96-well high binding plates (Corning, product number 3590) were coated with 1 μg/mL recombinant TL1A in 100 μL/well in Phospate Buffered Saline (PBS) overnight at 4° C. Plates were then blocked in PBS+0.02% casein solution and washed with PBS+0.05% Tween-20 following standard ELISA protocol. […] Plates were washed with PBS+0.05% Tween-20 following standard ELISA protocol, and Streptavidin-HRP (Southern Biotech, product number 7100-05) diluted to 1:10,000 in assay buffer was added to plates and incubated for 25-30 minutes at room temperature. Next, the plates were washed with PBS+0.05% Tween-20 following standard ELISA protocol, and then TMB substrate (BioFX Laboratories, catalog number TMBW-0100-01) was added to plates. Reactions were stopped after approximately 5 minutes by adding 0.18 M ortho-phosphoric acid to each well and absorbance was read at 450 nm.

Bioactivity relative to TL1A-0002 [fold] | IC50 [nM] | Binder
2.1 | 10.6 | B1
1.8 | 9 | B2
3 | 15 | B3
2 | 10.1 | B4
6 | 30.2 | B5
2.6 | 13.1 | B6
3 | 14.9 | B7
1.6 | 8 | B8
4 | 20.4 | B9
1.6 | 8 | B10
4.2 | 21 | B11
1.2 | 6.1 | B12
14.5 | 73.1 | B13
3.3 | 16.8 | B14
1.7 | 8.6 | B15
4.5 | 22.9 | B16
3.4 | 17.2 | B17
1.6 | 8.2 | B18
2.3 | 11.6 | B19

Bioactivity relative to TL1A-0002 [fold] | IC50 [nM] | Binder
3.1 | 15.8 | B20
2.9 | 14.5 | B21
10.3 | 52.1 | B22
1.8 | 9.1 | B23
14.8 | 74.7 | B24
2 | 10.3 | B25
4.9 | 24.7 | B26
5 | 25.3 | B27
17.3 | 87.3 | B28
2.1 | 10.5 | B29
2 | 10.2 | B30
48.9 | 246 | B31
1.9 | 9.7 | B32
4.7 | 23.8 | B33
2.4 | 12.3 | B34
1.6 | 7.9 | B35
2.8 | 14.2 | B36
1.9 | 9.6 | B37
